Values of other authors as cited in US7897835B2, “Expression vectors pSSA-K and pSSA-H for expression of SOD and APX in plants to provide stress tolerance” (Korea Research Institute of Bioscience and Biotechnology, priority 2004, dated 2011).

System: tobacco protoplast
Conditions: transient assay with GUS protein

B1: SWPA2 promoter: oxidative stress inducible peroxidase promoter isolated from sweetpotato (Ipomoea batatas), SEQ. ID. No 15 (nucleic acid)
DNA: AAGCTTCCATGATCAGATCGATAATACCAAATGGTACCACCTAACTAGGTGATATATATTATGTATGTCATTATTTTAAACTGTATTACAAAGACTATTTTTTCATTAATTGGTACAAAGAAAAATTAAACAGAAAAGAAAGGAAAAAATGACTCACCACCTAGCACCTAGACACCTAGACACCAAGTACCCAAACCCTCTATTTTCAACATCTATTTTCAGATGTAAATATGAGTTGGACGAAGAAGGTGTTAGCAATTATTTGATTAATCTTGCTACGATAATTATGATCCACTCACTTAGTCATTTTTTTCAGACCAAGACAACTAGCTTGAGTTTTTTATTGTATGTGGTCGGAACGTTTTTTGTAATTAAAAAAATAAAAGTTGCATCATTATATATGGTAGATTAAGTAATTGATCAATCAACGTTTAATTTTGCATTTATCGGCAAGGTGGAGGTTCCAACTTCCAGTCGAACTTAGAGAGTCATTGGAGACCTTGACCAGTTAACTAGCGGTGTCGAAAACCTGCACAACTTGAGATTTAATTGCATACCTTTTATATATGACGCGTTTTATTTTTTTTTCCTAGAAAATAATTTGGAAGAAAATAAGAATATGTATTCTGTGAAAGCTAGGCCAAAACGAATGTCTTTTCGTCGTTTTCGTTAAAGGTTTAGATCATATTTCATCTGGTCCAACACTCAAACTTGTATAATGGACGAATTATTAGTCATTTTAGACCTACCGGCTAGCGCGACTTTTTTGTTTTCCATAAAGATTCGATAATTGCATGGCCAGATGCAAAGTTTGAAATTTAATGTTTGCCAAATCCTATCATACACCACAACACATGTCTCAGGGCCAAGTGGCACCAGCAAACATTCCTGTCATAATTAATTTTTTTAATGAGAAGGAGGAAACTCACAGCTATTACTCGAAGGTATATAATATTGAGTAAATCTTACTTTGTGATTCTAGTTGACAAAACACCGCAAGATAAACTATACTAAGTTCAAATCACCTCACCGGGTTGGCTCAGATTGGTTTTTTCAATACAAGAGGGGGTGTGAACTCCCGTGCCGACCTCTTTTGAGGGACAATAATGTACGGTCACGCCAACCTAGCTTGATTTTTTCTGACAAATATATTACTACATATATTACACGGTCAAATAATTAATCAAAAAATAAAAAAAGACCCCAATTAAAGTCCCCAACCACTCTCAAATATTCTATTTAAGGGAAACCTTAGAGGCAATTCATGCATCCTCAACCCCTTCTTCTTCATTTTCTTAATCTTACATTTTCCTTTGACCCTCGAG
modifications: Ipomoea batatas
promoter activity relative to CaMV 35S promoter: at least 30 fold
